This note sets out measurements from publication PMC5041982 (2016).

Where no end group is shown, it is not given here. [ ]: non-standard residue; d: D form. pY = N[C@@H](Cc1ccc(OP(=O)(O)O)cc1)C(=O)O

The experiment addresses T1, EGFR pY1068 phosphododecapeptide dodecapeptide surrounding Y1068 (Homo sapiens, UniProt P00533).
T1 chain: LPVPE[pY]INQSVP
The experiment in a line: microscale thermophoresis. For orientation: MST reads how a fluorescent partner responds to local heating, with and without ligand.

B1: STAT3 127-722 (protein)
chain: GQANHPTAAVVTEKQQMLEQHLQDVRKRVQDLEQKMKVVENLQDDFDFNYKTLKSQGDMQDLNGNNQSVTRQKMQQLEQMLTALDQMRRSIVSELAGLLSAMEYVQKTLTDEELADWKRRQQIACIGGPPNICLDRLENWITSLAESQLQTRQQIKKLEELQQKVSYKGDPIVQHRPMLEERIVELFRNLMKSAFVVERQPCMPMHPDRPLVIKTGVQFTTKVRLLVKFPELNYQLKIKVCIDKDSGDVAALRGSRKFNILGTNTKVMNMEESNNGSLSAEFKHLTLREQRCGNGGRANCDASLIVTEELHLITFETEVYHQGLKIDLETHSLPVVVISNICQMPNAWASILWYNMLTNNPKNVNFFTKPPIGTWDQVAEVLSWQFSSTTKRGLSIEQLTTLAEKLLGPGVNYSGCQITWAKFCKENMAGKGFSFWVWLDNIIDLVKKYILALWNEGYIMGFISKERERAILSTKPPGTFLLRFSESSKEGGVTFTWVEKDISGKTQIQSVEPYTKQQLNNMSFAEIIMGYKIMDATNILVSPLVYLYPDIPKEEAFGKYCRPESQEHPEADPGSAAPYLKTKFICVTPTTCSNTI
As a reminder, the Kd is a measure of binding affinity in units of concentration. Turning to B1, the Kd came to 1.1 nM.
